Kd data for four molecules are collected here from PMC8405992 (2021).

Common to all, as to experiment: NMR titration
For assay [1], the target named is K11-linked diubiquitin (Homo sapiens, UniProt P0CG48).
For assay [2], the target named is T1, Dsk2-UBL 2-77 (Saccharomyces cerevisiae, UniProt P48510).
T1 chain: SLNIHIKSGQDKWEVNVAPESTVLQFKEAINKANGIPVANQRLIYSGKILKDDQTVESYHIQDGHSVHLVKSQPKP

The target in assay [3] is T2, Ubp6-UBL 2-81 (Saccharomyces cerevisiae, UniProt P43593).
T2 chain: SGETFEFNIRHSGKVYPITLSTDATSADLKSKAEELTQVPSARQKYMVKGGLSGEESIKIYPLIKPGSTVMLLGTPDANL

For assay [4], the target named is K48-linked diubiquitin (Homo sapiens, UniProt P0CG48).

Broadly, the Kd is the constant that tells how readily two partners part at equilibrium. Lower therefore signals higher affinity.

B1: Rpn1 214-324 (protein)
chain: HNGEEDAVDLLLEIESIDKLPQFVDENTFQRVCQYMVACVPLLPPPEDVAFLKTAYSIYLSQNELTDAIALAVRLGEEDMIRSVFDATSDPVMHKQLAYILAAQKTSFEYE
modifications: K11-linked Ub2, distal Ub 15N-enriched
B1: the affinity in assay [1], expressed as Kd, was 42 µM.

B2: Rpn1 214-355 (protein)
chain: HNGEEDAVDLLLEIESIDKLPQFVDENTFQRVCQYMVACVPLLPPPEDVAFLKTAYSIYLSQNELTDAIALAVRLGEEDMIRSVFDATSDPVMHKQLAYILAAQKTSFEYEGVQDIIGNGKLSEHFLYLAKELNLTGPKVPE
As to B2, the Kd in assay [2] is 48 µM; in assay [3], 104 µM.

B3: Rpn1 214-355 (protein)
chain: HNGEEDAVDLLLEIESIDKLPQFVDENTFQRVCQYMVACVPLLPPPEDVAFLKTAYSIYLSQNELTDAIALAVRLGEEDMIRSVFDATSDPVMHKQLAYILAAQKTSFEYEGVQDIIGNGKLSEHFLYLAKELNLTGPKVPE
modifications: K11-linked Ub2, distal Ub 15N-enriched
On to B3, for which, in assay [1], the Kd is 44 µM.

B4: Rpn1 214-355 (protein)
chain: HNGEEDAVDLLLEIESIDKLPQFVDENTFQRVCQYMVACVPLLPPPEDVAFLKTAYSIYLSQNELTDAIALAVRLGEEDMIRSVFDATSDPVMHKQLAYILAAQKTSFEYEGVQDIIGNGKLSEHFLYLAKELNLTGPKVPE
modifications: K48-linked Ub2, distal Ub 15N-enriched
Molecule B4 showed a Kd in assay [4] of 288 µM.
